Assay results from patent US20060045883A1, “Anti-cancer vaccines” (priority 2004, published 2006).

Columns and labels:
[1] = biological target: HLA-A2.1 heavy chain with I125-labeled beta2-microglobulin (heterotrimer dissociation assay) (human); assay: dissociation of I125-labeled beta2-microglobulin from the heavy chain/peptide/beta2-microglobulin complex, HPLC gel filtration
[2] = biological target: HLA-A2.1 (HLA-A*0201) on the surface of T2 cells (human); assay: peptide-binding assay, stabilisation of HLA-A2 on the surface of T2 cells, fluorescence intensity relative to PR1

Row | Substance | T1/2 [1] | FI CCNE1144-152/FI PR1 [2]
1 | HTLV-1 Tax peptide (aa 11-19) (from UniProt P03409 11-19) (peptide; other documents disagree on this pair) | 133 h | 
2 | CCNE1144-152 (cyclin E1 derived nonameric peptide) (from UniProt P24864 144-152) |  | 1.01
